From patent US20240287172A1 (SCIRHOM, published 2024) come the findings set out here.

The target of one assay is T1, hiR2-FL-T544P-T7 (human, UniProt Q6PJF5 1-856).
T1 sequence: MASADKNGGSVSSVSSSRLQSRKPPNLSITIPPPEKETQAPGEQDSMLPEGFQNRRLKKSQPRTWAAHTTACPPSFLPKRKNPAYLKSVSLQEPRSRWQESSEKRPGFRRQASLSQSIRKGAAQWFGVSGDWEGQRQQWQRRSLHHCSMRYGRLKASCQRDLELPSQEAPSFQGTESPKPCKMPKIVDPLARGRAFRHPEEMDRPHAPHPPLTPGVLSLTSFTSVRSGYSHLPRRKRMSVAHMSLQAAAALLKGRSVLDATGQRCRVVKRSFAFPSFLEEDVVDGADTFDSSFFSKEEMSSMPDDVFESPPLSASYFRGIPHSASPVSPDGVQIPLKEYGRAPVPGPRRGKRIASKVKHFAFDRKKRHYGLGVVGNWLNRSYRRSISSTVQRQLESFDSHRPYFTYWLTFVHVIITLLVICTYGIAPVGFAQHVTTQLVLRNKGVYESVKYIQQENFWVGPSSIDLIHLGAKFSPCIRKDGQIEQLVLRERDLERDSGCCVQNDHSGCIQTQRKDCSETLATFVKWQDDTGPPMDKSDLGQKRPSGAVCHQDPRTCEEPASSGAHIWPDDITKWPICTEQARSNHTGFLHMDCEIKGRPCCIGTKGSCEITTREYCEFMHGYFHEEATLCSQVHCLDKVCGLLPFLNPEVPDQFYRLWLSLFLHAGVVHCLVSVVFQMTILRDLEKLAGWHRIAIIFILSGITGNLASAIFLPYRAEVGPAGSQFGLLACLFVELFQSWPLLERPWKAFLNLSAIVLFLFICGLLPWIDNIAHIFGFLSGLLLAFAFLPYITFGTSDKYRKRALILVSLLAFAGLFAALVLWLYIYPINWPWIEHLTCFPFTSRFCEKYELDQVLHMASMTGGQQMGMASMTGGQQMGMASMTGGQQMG
The assay can be described thus: FACS, MEF-DKO cells, 3 µg/ml. The text has this:
In brief, immortalized MEF-DKO-hiR2-FL-WT-T7 cells, MEF-DKO-miR2-FL-WT-T7 cells and MEF-DKO-hiR2-FL-R441K-T7, MEF-DKO-hiR2-FL-K443R-T7, MEF-DKO-hiR2-FL-V459I-T7, MEF-DKO-hiR2-FL-G481Q-T7, MEF-DKO-hiR2-FL-L488R-T7, MEF-DKO-hiR2-FL-L493I-T7, MEF-DKO-hiR2-FL-D496T-T7, MEF-DKO-hiR2-FL-H505R-T7, MEF-DKO-hiR2-FL-Q512L-T7, MEF-DKO-hiR2-FL- R513K-T7, MEF-DKO-hiR2-FL-D528N-T7, MEF-DKO-hiR2-FL-P533-T7, MEF-DKO-hiR2-FL-M534S-T7, MEF-DKO-hiR2-FL-G540S-T7, MEF-DKO-hiR2-FL-R543Q-T7, MEF-DKO-hiR2-FL-T544P-T7, MEF-DKO-hiR2-FL-G546A-T7, MEF-DKO-hiR2-FL-A547V-T7, MEF-DKO-hiR2-FL-R582Q-T7, MEF-DKO-hiR2-FL-F588L-T7, MEF-DKO-hiR2-FL-M591I-T7, MEF-DKO-hiR2-FL-E594K-T7, MEF-DKO-hiR2-FL-E626D-T7, MEF-DKO-hiR2-FL-L657I-T7, and MEF-DKO-hiR2-FL-H835Y-T7 cells were harvested with 10 mM EDTA in PBS, washed and resuspended in FACS buffer (PBS, 3% FBS, 0.05% sodium azide), and seeded in Nunc U-bottom 96-well plates (Thermo Fisher Scientific, USA) at approximately 3×10⁵ cells per well.
To pellet cells and remove supernatants, the plates were centrifuged at 1,500 rpm and 4° C. for 3 minutes. For primary staining, cells were resuspended in 100 μl per well of either FACS buffer alone (controls) or the purified antibodies 3, 5, 16, 22, 34, 42, 43, 44, 48, and 50 of the invention at 3 μg/ml FACS buffer and incubated on ice for 1 hour. Afterwards, plates were centrifuged at 1,500 rpm and 4° C. for 3 minutes and washed twice with 200 μl per well of FACS buffer. For secondary staining, cells were spun down and resuspended in 100 μl per well of PE-conjugated goat anti-mouse IgG F(ab′)2 detection fragment (Dianova, Germany) diluted 1:100 in FACS buffer. Protected from light, the cell suspensions were incubated on ice for 1 hour. Plates were then centrifuged at 1,500 rpm and 4° C. for 3 minutes and washed three times with 200 μl per well of FACS buffer. Finally, cells were resuspended in 150 μl per well of FACS buffer and analyzed using a BD Accuri™ C6 Plus flow cytometer (Becton Dickinson, Germany).
In general terms: In flow cytometry, cells or beads pass a laser one at a time.

The target of a further assay is T2, mouse iR1 wild type (mouse).
T2 construct: wild type, expressed on cells; also called mouse iRhom1 wild type
The assay can be described thus: FACS, MEF-DKO cells, 3 µg/ml.

B1: antibody 48 (antibody, V domains shown)
VH: QVQLQQSGTELVRPGTSVKVSCKASGYAFTNYLIEWVKQRPGQGLEWIGVINPGSGFTKYNEKFKGKATLTADKSSSTVYMHLSSLTSEDSAVYFCARGLYRAMDYWGQGTSVTVSS
VL: DIQMTQSPASQSASLGESVTITCLASQTIATWLAWYQQKPGKSPQLLIYGATTLADGVPSRFSGGGSGTKFSFKISSLQAEDFVSYYCQQLYSTPYTFGGGTKLEIK
notes: mouse IgG, kappa light chain; also called clone #48; purified antibody 48
With B1, the “loss of binding vs wild type” value with hiR2-FL-T544P-T7 is no less than 30%; with mouse iR1 wild type, no less than 60%.

B2: antibody 50 (antibody, V domains shown)
VH: QVQLQQSGAELVRPGASVKVSCKASGYAFSNYLIEWVKQRPGQGLEWIGVINPGSGFTKYNEKFKGKATLTADKSSSTAYMQLSSLTSEDSAVYFCARGLYRAMDYWGQGTSVTVSS
VL: DIQMTQSPASQSASLGESVTITCLASQTIGTWLAWYQQKPGKSPQLLIYAAASLADGVPSRFSGGGSGTKFSFKISSLQAEDFVNYYCQQIYSTPYTFGGGTKLEIK
notes: mouse IgG, kappa light chain; also called clone #50; purified antibody 50
In the case of B2, the “loss of binding vs wild type” value was no less than 30% with hiR2-FL-T544P-T7 and no less than 95% in the assay with mouse iR1 wild type.

B3: antibody 16 (antibody, V domains shown)
VH: QVTLKESGPGILQPSQTLSLTCSFSGFSLSTFALGVGWIRQPSGRGLEWLAHIWWDDDKYYNPALKSRLTISKDTSKNHVFLKIANVDTADTATYYCARITTYYYGMDYWGQGTSVTVSS
VL: DIVLSQSPATLSVTPGDSVSLFCRASQSIGNHLHWYQQESHASPRLLIKYASQSISGIPSRFSGSGSGTDFTLSINSVETEDFGMYFCQQSYNWPLTFGAGTKLELK
notes: mouse IgG, kappa light chain; also called clone #16; purified antibody 16
On to B3, for which the “loss of binding vs wild type” value with mouse iR1 wild type was no less than 95%.

B4: antibody 3 (antibody, V domains shown)
VH: QVTLKESGPGILQPSQTLSLTCSFSGFSLTTFAMGIGWVRQPSGKGLEWLAHIWWDGEKYNNPVLKSRLTISKDTSKNQVFLRIANVDTPDTATYYCARISSIYYIIDNWGQGTSVTVSS
VL: DIVLTQSPATLSVTPGHSVSLSCRASQSISNNLHWYQKKSHESPRLLIKYVSQSISGIPSRFSGSGSGTDFTLSINSVETEDFGMYFCQQSYNWPLTFGAGTKLELK
notes: mouse IgG, kappa light chain; also called clone #3; purified antibody 3
Take B4: the results for the “loss of binding vs wild type” value with hiR2-FL-T544P-T7 and with mouse iR1 wild type were no less than 60% and no less than 95%, respectively.

B5: antibody 5 (antibody, V domains shown)
VH: QVTLKESGPGILQPSQTLSLTCSFSGFSLSTFGMGVGWIRQPSGKGLEWLAHIWWDDEKYYNSALKSRLTISKATSKNQAFLKIANVDTADTATYYCARISNYGSNYWYFNVWGTGTTVTVSS
VL: QVVLTQSPALMSASPGEKVTMTCSAGSSVSCMYWYQQKPGSSPRVLIYDTSNLASGVPARFTGSGSGTSYSLTISRMEAEDAASYYCQQWNSYPLTFGAGTKLELK
notes: mouse IgG, kappa light chain; also called clone #5; purified antibody 5
For B5, the “loss of binding vs wild type” value with hiR2-FL-T544P-T7 was no less than 60%; with mouse iR1 wild type, no less than 95%.

B6: antibody 43 (antibody, V domains shown)
VH: QVALKESGPGILQPSQTLSLTCSFSGFSLSTFGMGVGWIRQSSGKGLEWLANIWWDDDKYYNPALKSRLTISKDASKNQAFLKIANVDTADTATYYCARIGNYGSNYWYFDVWGTGTTVTVSS
VL: QIVLTQSPAIMSASPGERVTMTCSANSRISYMYWYQQKPGSSPRLLIYDTSNLASGVPVRFSGSGSGTSYSLTISRMEAEDAATYNCQQWSSYPLTFGAGTKLELK
notes: mouse IgG, kappa light chain; also called clone #43; purified antibody 43
For B6, the results for the “loss of binding vs wild type” value in the assay with hiR2-FL-T544P-T7 and with mouse iR1 wild type were no less than 60% and no less than 95%, respectively.

B7: antibody 42 (antibody, V domains shown)
VH: QVTLKESGPGILQPSQTLSLTCSLSGFSLSTFGRGVGWIRQPSGKGLEWLAHIWWDDEKYYNPALKSRLTISKDTSKNQVFLRIANVDTADTATYYCARIQNYGSNYWYFDVWGTGTTVTVSS
VL: LIVLTQSPAIMSASPGEKVTMTCGATSRISYMFWYQQKPGSSPRVLIYDTSNLASGVPVRFSGSGSGTSYSLTISRVEAEDVATYYCQQWNSYPLTFGAGTKLELK
notes: mouse IgG, kappa light chain; also called clone #42; purified antibody 42
For the molecule B7, the “loss of binding vs wild type” value was no less than 60% with hiR2-FL-T544P-T7 and no less than 95% with mouse iR1 wild type.

B8: antibody 44 (antibody, V domains shown)
VH: QVTLKESGPGILQPSQTLSLTCSFSGFSLSTFGMGVGWIRQPSEKGLEWLAHIWWDDDKYYNPALKSRLTISKDTSKNQIFLKITNVDTAETATYYCSRIGNYGSNYWYFDVWGTGTTVTVSS
VL: QIVLTQSPAVMSASPGEKVTMTCTASSSVYYMYWYQQTPGSSPRLLIYDTSNLASGVPVRFSGSGSGTSYSLTISRMEAEDAATYYCQQWNTYPLTFGAGTKLELK
notes: mouse IgG, kappa light chain; also called clone #44; purified antibody 44
Consider B8, for which the “loss of binding vs wild type” value in the assay with hiR2-FL-T544P-T7 is no less than 30%; in the assay with mouse iR1 wild type it was no less than 95%.

B9: antibody 22 (antibody, V domains shown)
VH: QVTLKESGPGILQPSQTLSLTCSFSGFSLSTFGMGVGWIRQPSGKGLEWLAHIWWDDEKYYNSALKSRLTISKATSKNQVFLKIANVDTADTATYYCARISNYGSNYWYFNVWGTGTTVTVSS
VL: QVVLTQSPALMSASPGEKVTMTCSAGSSVSYMYWYQQKPGSSPRVLIYDTSNLASGVPARFTGSGSGTSYSLTISRMEAEDAATYYCQQWNSYPLTFGAGTKLELK
notes: mouse IgG, kappa light chain; also called clone #22; purified antibody 22
For B9, the entries for the “loss of binding vs wild type” value with hiR2-FL-T544P-T7 and with mouse iR1 wild type were no less than 30% and no less than 95%, respectively.

B10: antibody 34 (antibody, V domains shown)
VH: QVTLKESGPGILQPSQTLSLTCSFSGFSLSTFSLGVGWIRQSSGKGLEWLAHIWWDDEKYYNPALKSRLTISKDTSKNQVFLKIANVDAADTATYYCARAYYSKSYYALDYWGQGTSVTVSS
VL: DIQMTQSPSSLSASLGERVSLTCRASQEISGYLSWLQQKPDGTIKRLIYAASTLDSGVPKRFSGSRSGSDYSLAISSLESEDFADYYCLQYANFPFTFGSGTKLEIK
notes: mouse IgG, kappa light chain; also called clone #34; purified antibody 34
Take B10: the “loss of binding vs wild type” value in the assay with hiR2-FL-T544P-T7 was no less than 60%; with mouse iR1 wild type, no less than 95%.
